Legend:
[1] = target: T1, human transferrin receptor expressed by normal human cells (RBC, PMN, lymphocytes, monocytes, platelets, … (human, UniProt P02786 1-760)); assay: FACS, monocytes, donor D005, 1x
T1 construct: The assay is whole-cell FACS on normal donor cells; also called TfR on normal cells
Description: (§1) Preparation of PBMC and PMN: The whole blood was diluted with an equal volume of PBS and mixed with 1/10 volume of 15% Dextran solution. […] After centrifugation at 2200 rpm for 15 min (rotor: SORVALL, PN11788 and centrifuge: SORVALL, RT7), PBMC concentrated in the interface, were collected and washed with large volumes of FACS buffer (2% FBS in PBS) for future use. The PMN-rich pellet was collected, from which residual RBC was removed by hypotonic lysis in 0.2% NaCl.
(§2) 1×10⁵ cells were seeded in each well of a v-bottomed 96-well plate and incubated with 50 μl of hybridoma culture supernatant at 1× and 10× dilution, or isotype control antibody mouse IgM, κ (BD™, Cat. No. 557275) at concentration of 1 μg/ml. A 300× dilution of human cell hyper-immune serum was used as binding positive control for all cell types. PE-conjugated anti-human CD41a (Southern Biotech™, Cat. No. 9391-09) was used as a positive control for staining human platelets. Anti-sialyl Lewis x antibody (Millipore™, Cat. No. MAB2096) was used as a positive control for staining human PMN. Anti-human CD31 (Hycult™, Cat. No. HM2039) was used as a positive control for staining HUVEC. After 30 minutes incubation at 4° C., cells were washed twice with 200 μl FACS buffer (1×PBS containing 1% FBS), stained with 50 μl of 1 μg/ml goat F(ab′)2-anti-mouse IgG(H+L)-PE (Southern Biotech™, Cat. No. 1032-09) or 1 μg/ml goat F(ab′)2-anti-mouse IgM(H+L)-PE (Southern Biotech™, Cat. No. 1022-09) in FACS buffer. After 30 minutes of incubation at 4° C., cells were washed twice with FACS buffer and analyzed by flow cytometry (BD LSR, BD Life Sciences).

[2] = target: T1, human transferrin receptor expressed by …; assay: FACS, RBC, donor D005, 1x
Description: (§3) The hyper-immuned serum (Hyp-serum) or the corresponding cell marker antibodies for certain cell types were included as positive controls.
as §2

[3] = target: T1, human transferrin receptor expressed by …; assay: FACS, platelets, donor D014, 1x
Description: as §3, §2

[4] = target: T1, human transferrin receptor expressed by …; assay: FACS, RBC, donor D005, 1/10x
Description: as §3, §2

[5] = target: T1, human transferrin receptor expressed by …; assay: FACS, monocytes, donor D102, 1x
Description: as §1, §2

[6] = target: T2, human transferrin receptor expressed by Jurkat cells (human, UniProt P02786 1-760); assay: FACS, Jurkat cells, 1X
T2 construct: Endogenous receptor on Jurkat cells; MEM189 was the positive control; also called TfR on T leukemia cell line Jurkat

[7] = target: T1, human transferrin receptor expressed by …; assay: FACS, PMN, donor D102, 1/10x
Description: as §1, §2

[8] = target: human transferrin receptor expressed by nonhematopoietic cancer cells (human) (UniProt P02786); assay: cell-based or functional assay
[9] = target: T1, human transferrin receptor expressed by …; assay: FACS, RBC, donor D014, 1/10x
Description: as §3, §2

[10] = target: T1, human transferrin receptor expressed by …; assay: FACS, PMN, donor D102, 1x
Description: as §1, §2

[11] = target: T1, human transferrin receptor expressed by …; assay: FACS, monocytes, donor D102, 1/10x
Description: as §3, §2

[12] = target: T1, human transferrin receptor expressed by …; assay: FACS, RBC, donor D016, 1x
Description: as §3, §2

[13] = target: T1, human transferrin receptor expressed by …; assay: FACS, HUVEC, 1/10x
Description: as §3, §2

[14] = target: T1, human transferrin receptor expressed by …; assay: FACS, PMN, donor D016, 1/10x
Description: as §1, §2

[15] = target: T1, human transferrin receptor expressed by …; assay: FACS, RBC, donor D016, 1/10x
Description: as §3, §2

[16] = target: T1, human transferrin receptor expressed by …; assay: FACS, lymphocytes, donor D016, 1/10x
Description: as §3, §2

[17] = target: T1, human transferrin receptor expressed by …; assay: FACS, lymphocytes, donor D005, 1x
Description: as §3, §2

[18] = target: T1, human transferrin receptor expressed by …; assay: FACS, lymphocytes, donor D016, 1x
Description: as §3, §2

Sequence of human transferrin receptor expressed by nonhematopoietic cancer cells (human) (P02786 whole entry G142S): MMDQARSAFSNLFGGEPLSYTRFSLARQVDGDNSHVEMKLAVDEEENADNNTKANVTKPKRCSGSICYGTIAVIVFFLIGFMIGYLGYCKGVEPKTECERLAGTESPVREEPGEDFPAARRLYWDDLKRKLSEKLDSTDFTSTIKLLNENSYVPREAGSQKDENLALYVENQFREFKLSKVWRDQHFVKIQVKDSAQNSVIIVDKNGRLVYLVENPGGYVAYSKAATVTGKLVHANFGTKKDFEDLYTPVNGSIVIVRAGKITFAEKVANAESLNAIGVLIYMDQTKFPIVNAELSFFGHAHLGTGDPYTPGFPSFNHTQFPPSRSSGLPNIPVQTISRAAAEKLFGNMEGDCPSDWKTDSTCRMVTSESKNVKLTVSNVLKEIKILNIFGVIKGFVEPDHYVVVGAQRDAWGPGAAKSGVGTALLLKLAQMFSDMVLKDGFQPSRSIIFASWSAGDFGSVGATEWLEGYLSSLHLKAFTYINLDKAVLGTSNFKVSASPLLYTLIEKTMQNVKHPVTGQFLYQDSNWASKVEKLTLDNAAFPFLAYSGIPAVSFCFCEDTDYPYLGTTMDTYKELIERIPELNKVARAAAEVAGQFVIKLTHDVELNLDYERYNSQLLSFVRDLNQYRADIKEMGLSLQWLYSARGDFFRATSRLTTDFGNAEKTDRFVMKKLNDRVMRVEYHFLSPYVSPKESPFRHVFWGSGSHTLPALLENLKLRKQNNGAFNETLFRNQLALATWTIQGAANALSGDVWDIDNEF
T1 sequence (P02786 whole entry G142S): as above
T2 sequence (P02786 whole entry G142S): as above

B1: antibody 122-72 (antibody, V domains shown)
VH: EVQLVESGGGLVQPKGSLKLSCAASGFTFNTYAMNWVRQAPGKGLEWVARIRSKSNNYATYYADSVKDRFTISRDDSQSMLYLQMNNLKTEDTAMYYCVAYGSRNYWGQGTTLTVSS
VL: DIVMTQSPSSLTVTAGEKVTMSCKSSQSLLNSGNQKNYLTWYQQKPGQPPKLLIYWASTRESGVPDRFTGSGSGTDFTLTISSVQAEDLAVYYCQNDYSYPYTFGGGTKLEIKR
notes: Mouse IgM, kappa from a hybridoma; tested as hybridoma culture supernatant; Antibody 60-43 is said to have the same CDRs
[1]
  % positive cell binding: 2%
[2]
  % positive cell binding: < 1%
[3]
  % positive cell binding: < 1%
[4]
  % positive cell binding: < 1%
[5]
  % positive cell binding: 1%
[6]
  % of gated cells: 1%
[7]
  % positive cell binding: 1%
[8]
  percentage of Annexin V positive and/or PI positive cells; COLO205; 1/2X (IgM 19.1): 80.3%
  percentage of Annexin V positive and/or PI positive cells; COLO205; 1/6X (IgM 19.1): 25.2%
  percentage of Annexin V positive and/or PI positive cells; COLO205; 1/18X (IgM 19.1): 18.6%
  percentage of Annexin V positive and/or PI positive cells; DLD1; 1/2X (IgM 24.3): 42.2%
  percentage of Annexin V positive and/or PI positive cells; DLD1; 1/6X (IgM 24.3): 38.6%
  percentage of Annexin V positive and/or PI positive cells; DLD1; 1/18X (IgM 24.3): 37.1%
  percentage of Annexin V positive and/or PI positive cells; H358; 1/2X (IgM 31.8): 70.8%
  percentage of Annexin V positive and/or PI positive cells; H358; 1/6X (IgM 31.8): 70.1%
  percentage of Annexin V positive and/or PI positive cells; H358; 1/18X (IgM 31.8): 63.9%
  percentage of Annexin V positive and/or PI positive cells; Pan 02.03B; 1/2X (IgM 16.9): 31.5%
  percentage of Annexin V positive and/or PI positive cells; Pan 02.03B; 1/6X (IgM 16.9): 20.5%
  percentage of Annexin V positive and/or PI positive cells; Pan 02.03B; 1/18X (IgM 16.9): 20.5%
  percentage of Annexin V positive and/or PI positive cells; SNU-16; 1/2X (IgM 30.0): 46.6%
  percentage of Annexin V positive and/or PI positive cells; SNU-16; 1/6X (IgM 30.0): 43.5%
  percentage of Annexin V positive and/or PI positive cells; SNU-16; 1/18X (IgM 30.0): 36.6%
  percentage of Annexin V positive and/or PI positive cells; SU.86.86; 1/2X (IgM 12.1): 41.3%
  percentage of Annexin V positive and/or PI positive cells; SU.86.86; 1/6X (IgM 12.1): 29.3%
  percentage of Annexin V positive and/or PI positive cells; SU.86.86; 1/18X (IgM 12.1): 23.4%
[9]
  % positive cell binding: 1%
[10]
  % positive cell binding: 1%
[11]
  % positive cell binding: 4%
[12]
  % positive cell binding: 1%
[13]
  % positive cell binding: 1%
[14]
  % positive cell binding: 1%
[15]
  % positive cell binding: 1%
[16]
  % positive cell binding: 1%
[17]
  % positive cell binding: < 1%
[18]
  % positive cell binding: < 1%

Source: patent US20130177579A1 (BIOALLIANCE C V, published 2013)
